Literature values as cited in US20230107428A1 (priority 2021, published 2023).

Legend:
[1] = target: T1, interleukin-6 receptor (Homo sapiens, UniProt P08887); conditions: tocilizumab or sarilumab, intensive care units; cited from earlier work
T1 construct: host or cells: patients (endogenous receptor)
T1 sequence (P08887 20-468): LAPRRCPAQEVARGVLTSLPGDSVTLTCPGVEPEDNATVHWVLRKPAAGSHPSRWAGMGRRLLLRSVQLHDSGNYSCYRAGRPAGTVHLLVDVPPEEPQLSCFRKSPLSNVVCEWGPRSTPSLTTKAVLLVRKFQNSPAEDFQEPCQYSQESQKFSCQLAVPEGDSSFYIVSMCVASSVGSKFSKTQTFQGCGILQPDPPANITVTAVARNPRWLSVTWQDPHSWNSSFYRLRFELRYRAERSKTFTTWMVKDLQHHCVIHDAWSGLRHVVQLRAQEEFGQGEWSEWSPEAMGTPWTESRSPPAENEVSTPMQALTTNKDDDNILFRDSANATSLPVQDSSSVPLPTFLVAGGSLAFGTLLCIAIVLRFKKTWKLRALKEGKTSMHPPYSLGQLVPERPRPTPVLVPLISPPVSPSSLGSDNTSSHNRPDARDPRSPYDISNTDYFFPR

[2] = tested on: hepatitis B virus; conditions: in vitro; cited from earlier work

| Molecule | survival in severe patients [1] | inhibition of hepatitis B virus [2] |
| --- | --- | --- |
| tocilizumab [reference compound] | increased | – |
| CC(=O)O[C@H]([C@@H]1C[C@@H](C)C2=C3C=C[C@H]4[C@@]5(C)CCC(=O)C(C)(C)[C@@H]5CC[C@]4(C)[C@@]3(C)C[C@@H]2O1)C(C)(C)O [Alisol O] | – | could inhibit |
| sarilumab (antibody, chains of the INN, looked up, V domains shown) VH: EVQLVESGGGLVQPGRSLRLSCAASRFTFDDYAMHWVRQAPGKGLEWVSGISWNSGRIGYADSVKGRFTISRDNAENSLFLQMNGLRAEDTALYYCAKGRDSFDIWGQGTMVTVSS VL: DIQMTQSPSSVSASVGDRVTITCRASQGISSWLAWYQQKPGKAPKLLIYGASSLESGVPSRFSGSGSGTDFTLTISSLQPEDFASYYCQQANSFPYTFGQGTKLEIK | increased | – |
